Results reported in paper PMC11329700.

Biological target: His-tagged mouse Endophilin A1 SH3 domain (mouse) (UniProt Q62420)
Test: ELISA; His-tagged mouse Endophilin A1 SH3 domain coated onto a 96-well plate, overlaid with increasing concentrations of GST-tagged Dyn1-PRR peptides; two experiments with four replicates each

Sequence of His-tagged mouse Endophilin A1 SH3 domain (mouse) (Q62420 290-349): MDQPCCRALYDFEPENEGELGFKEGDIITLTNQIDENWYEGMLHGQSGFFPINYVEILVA

Q: For “GST-Dyn1xA-PRR 751-798 (domain or fragment)”, which fold weaker affinity than xA 746-864 is on record?
A: The fold weaker affinity than xA 746-864 was 9 fold.

Q: Which fold lower affinity than xA 746-864 does the source give for “GST-Dyn1xB-PRR (dynamin 1xB proline-rich region, amino acids 746-851) (domain or fragment)” here?
A: The fold lower affinity than xA 746-864 was 3 fold.
